In PMC7878476:

Molecular target: DnaJB8ΔCTD (human)
Assay: cross-linking; HspA1A in 1× PBS pH 7.4 mixed with 40 μM DnaJB8, JD_(1–82), DnaJB8ΔCTD or DnaJB8F→S; 37 °C, ADH/DMTMM; XL–MS in triplicate

Chain of human Hsp70 (HspA1A) (P0DMV8 whole entry): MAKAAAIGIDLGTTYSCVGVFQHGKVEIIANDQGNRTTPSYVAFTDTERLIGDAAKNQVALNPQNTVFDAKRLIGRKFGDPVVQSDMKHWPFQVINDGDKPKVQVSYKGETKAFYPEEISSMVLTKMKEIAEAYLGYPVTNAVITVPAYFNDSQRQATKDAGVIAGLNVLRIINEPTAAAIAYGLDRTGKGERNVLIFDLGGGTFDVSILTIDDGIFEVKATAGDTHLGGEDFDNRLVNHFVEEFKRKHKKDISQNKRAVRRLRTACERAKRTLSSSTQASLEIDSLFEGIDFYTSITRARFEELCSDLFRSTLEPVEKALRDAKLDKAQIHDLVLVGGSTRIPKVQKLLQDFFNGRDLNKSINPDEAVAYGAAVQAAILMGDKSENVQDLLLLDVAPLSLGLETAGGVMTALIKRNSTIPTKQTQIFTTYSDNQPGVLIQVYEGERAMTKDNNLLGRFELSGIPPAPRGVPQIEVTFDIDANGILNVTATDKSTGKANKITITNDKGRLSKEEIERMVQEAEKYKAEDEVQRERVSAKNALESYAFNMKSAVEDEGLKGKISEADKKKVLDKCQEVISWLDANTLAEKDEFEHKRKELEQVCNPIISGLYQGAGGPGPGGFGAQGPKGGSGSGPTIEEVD

- total cross-links between the JD and HspA1A across three XL–MS experiments: 14 cross-links
Substance: human Hsp70 (HspA1A) (from UniProt P0DMV8 1-641) (natural protein)
